Experimental findings from paper doi:10.1101/2021.10.29.466502 (bioRxiv, 2021) are described below.

For experiment [1], the target named is thrombopoietin receptor MPL on Ba/F3-HuMpl cells (human) (UniProt P40238).
The target in experiment [2] is T1, thrombopoietin receptor MPL on Ba/F3-HuMpl cells (human, UniProt P40238 26-635, N-glycans (consensus sites N117, N178, N298, N358)).
T1 sequence: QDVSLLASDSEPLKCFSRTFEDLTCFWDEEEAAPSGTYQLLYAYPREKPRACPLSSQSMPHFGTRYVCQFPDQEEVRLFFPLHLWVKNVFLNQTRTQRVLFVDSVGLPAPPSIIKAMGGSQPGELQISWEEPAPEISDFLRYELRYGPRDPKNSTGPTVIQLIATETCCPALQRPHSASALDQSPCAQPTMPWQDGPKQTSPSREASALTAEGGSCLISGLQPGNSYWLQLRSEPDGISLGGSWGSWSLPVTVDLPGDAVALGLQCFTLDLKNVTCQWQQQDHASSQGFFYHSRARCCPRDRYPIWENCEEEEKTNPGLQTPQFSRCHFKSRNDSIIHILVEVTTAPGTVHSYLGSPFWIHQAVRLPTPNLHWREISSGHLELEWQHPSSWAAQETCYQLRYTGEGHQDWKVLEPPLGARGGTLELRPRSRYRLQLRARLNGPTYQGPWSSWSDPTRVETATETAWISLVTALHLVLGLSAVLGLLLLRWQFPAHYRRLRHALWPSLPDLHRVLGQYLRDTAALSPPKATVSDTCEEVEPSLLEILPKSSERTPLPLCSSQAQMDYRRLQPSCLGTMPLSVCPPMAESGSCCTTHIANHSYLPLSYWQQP
Description: cell-based or functional assay.

The molecule “PA-IIL (from UniProt Q9HYN5 1-115) (natural protein)” came in with a proliferation of Ba/F3-HuMpl cells, EC50 in experiment [1] of 17.5 µg/mL.

B1: N-terminal His-tagged recombinant ThC (rThC) (natural protein)
chain: TACTTGPQTISFPAGLIVSLNASVQSSRNESVEVKDSNGNTVSRGSGSSSSGGTFTVINMEPPTFISDGNDYTVELSPQATPGILQTESSRVDNGRLIWQNYAFGANDGGCIVGDRDFNDVFVLITGLVRG
As to B1, the “proliferation of Ba/F3-HuMpl cells, EC50” value in experiment [2] was found to be 0.26 µg/mL.
